Measurements published in US20240384326.

What was measured:
[1] = target: APOBEC3A (E109A/E109Q as variously stated), no fusion E109A (Homo sapiens) (UniProt P31941); experiment: cleavage_in_vitro; conditions: USER assay, 10 mM MgCl2, pH 7, 37C
[2] = tested on: anti-pseudouridine antibody Ab19; experiment: ELONA; conditions: unmodified control
[3] = tested on: anti-inosine antibody Ab10; experiment: ELONA
anti-m6A antibody Ab02 = experiment: ELONA
anti-m5C antibody Ab16 = experiment: ELONA
[4] = tested on: anti-pseudouridine antibody Ab11; experiment: ELONA; conditions: unmodified control
anti-m6A antibody Ab05 = experiment: ELONA
anti-m6A antibody Ab01 = experiment: ELONA
[5] = tested on: Ab05 randomly labeled with DNA adapter (HyNic); experiment: ELONA; conditions: m6A at position 9; random HyNic labeling
[6] = m6A at position 9, plate ELISA, avidity, stated only as subnanomolar

Sequence of APOBEC3A (E109A/E109Q as variously stated), no fusion E109A (Homo sapiens) (P31941 whole entry E109A, the tested form may be a part): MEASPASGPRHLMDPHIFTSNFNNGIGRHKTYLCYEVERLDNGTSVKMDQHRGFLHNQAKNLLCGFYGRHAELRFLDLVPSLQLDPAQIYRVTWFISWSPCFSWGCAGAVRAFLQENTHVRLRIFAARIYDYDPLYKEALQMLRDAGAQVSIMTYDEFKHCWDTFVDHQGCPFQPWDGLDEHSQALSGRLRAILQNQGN

## FAM-DNA oligonucleotide with a single central C
[1]
  activity (fold vs APOBEC1): > 10

## NNNNNNNNNNNNNNNN [unmodified degenerate reference RNA (SEQ ID NO: 5)]
[2]
  binding signal (fold weaker than cognate): 10
[3]; unmodified control
  binding signal (fold weaker than cognate): > 100
anti-m6A antibody Ab02; unmodified control
  binding signal (fold weaker than cognate): > 100
anti-m5C antibody Ab16; unmodified control
  binding signal (fold weaker than cognate): > 100
[4]
  binding signal (fold weaker than cognate): 10
anti-m6A antibody Ab05; unmodified control
  binding signal (fold weaker than cognate): > 100
anti-m6A antibody Ab01; unmodified control
  binding signal (fold weaker than cognate): > 100

## NNNNNNNNCNNNNNNNN [m5C degenerate RNA (SEQ ID NO: 4)]
anti-m5C antibody Ab16; m5C at position 9, plate ELISA, avidity, stated only as subnanomolar
  Kd: < 1 nM

## NNNNNNNNANNNNNNNN [m6A degenerate RNA (SEQ ID NO: 1)]
anti-m6A antibody Ab02; [6]
  Kd: < 1 nM
[5]
  binding signal (fold loss of KD vs unlabeled Ab05): > 15
anti-m6A antibody Ab05; [6]
  Kd: < 1 nM
anti-m6A antibody Ab01; m6A at position 9, plate ELISA, immobilised RNA, avidity, stated only as subnanomolar, 22C
  Kd: < 1 nM

## NNNNNNNNINNNNNNNN [inosine degenerate RNA (SEQ ID NO: 2 in Table 4)]
[3]; inosine at position 9, plate ELISA, avidity, stated only as subnanomolar
  Kd: < 1 nM
